Data reported in patent US20220010021A1 (Sanofi, published 2022).
Residue numbers refer to the chain shown, from its start. Numbers in names are those of the source.

Legend:
[1] = biological target: human FGFR1c/KLB cell surface receptor complex on iLite FGF21 reporter cells (human, UniProt P11362 22-822; Q86Z14 1-1044); test: cell-based or functional assay
human beta-Klotho (KLB) = biological target: T1, human beta-Klotho (KLB) (human, UniProt Q86Z14 53-997); test: BLI off-rate screen (Octet), Ab captured via Fc;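 also: antibody supernatants applied at 25 µg/mL, dissociation monitored over 1800 s in D-PBS with 0.1% BSA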
T1 construct: also called human KLB
T1 sequence (looked up): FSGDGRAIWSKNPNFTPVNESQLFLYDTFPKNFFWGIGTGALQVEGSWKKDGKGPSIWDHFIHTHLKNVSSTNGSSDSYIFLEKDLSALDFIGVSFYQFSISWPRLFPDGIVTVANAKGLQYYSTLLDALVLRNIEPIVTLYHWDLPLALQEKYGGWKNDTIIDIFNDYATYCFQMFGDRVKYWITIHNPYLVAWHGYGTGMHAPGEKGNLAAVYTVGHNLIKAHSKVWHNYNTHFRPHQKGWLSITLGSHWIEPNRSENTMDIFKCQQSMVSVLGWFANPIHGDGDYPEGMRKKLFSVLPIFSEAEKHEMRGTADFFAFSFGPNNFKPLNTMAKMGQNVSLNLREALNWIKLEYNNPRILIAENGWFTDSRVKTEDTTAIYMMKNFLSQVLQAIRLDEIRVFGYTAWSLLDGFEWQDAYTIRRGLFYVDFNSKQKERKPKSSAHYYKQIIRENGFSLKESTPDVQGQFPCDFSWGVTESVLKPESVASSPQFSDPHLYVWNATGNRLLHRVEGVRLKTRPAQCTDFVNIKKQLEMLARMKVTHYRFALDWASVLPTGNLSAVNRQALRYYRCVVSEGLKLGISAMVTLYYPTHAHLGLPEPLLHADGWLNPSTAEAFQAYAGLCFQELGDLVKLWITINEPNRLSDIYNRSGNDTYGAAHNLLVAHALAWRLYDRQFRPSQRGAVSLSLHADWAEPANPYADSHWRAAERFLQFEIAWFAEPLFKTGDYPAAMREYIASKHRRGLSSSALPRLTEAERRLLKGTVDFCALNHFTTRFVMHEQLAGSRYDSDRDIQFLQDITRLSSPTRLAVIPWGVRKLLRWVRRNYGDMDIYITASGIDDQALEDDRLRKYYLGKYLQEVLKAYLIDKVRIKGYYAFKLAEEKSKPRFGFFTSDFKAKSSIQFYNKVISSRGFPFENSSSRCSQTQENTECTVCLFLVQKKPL

[2] = biological target: cell surface receptor composed of FGFR1c and co-receptor beta-Klotho (KLB) (human, UniProt P11362 22-822; Q86Z14 1-1044); test: cell-based or functional assay
Target sequence in this assay (P11362 22-822, chain 1 of 2): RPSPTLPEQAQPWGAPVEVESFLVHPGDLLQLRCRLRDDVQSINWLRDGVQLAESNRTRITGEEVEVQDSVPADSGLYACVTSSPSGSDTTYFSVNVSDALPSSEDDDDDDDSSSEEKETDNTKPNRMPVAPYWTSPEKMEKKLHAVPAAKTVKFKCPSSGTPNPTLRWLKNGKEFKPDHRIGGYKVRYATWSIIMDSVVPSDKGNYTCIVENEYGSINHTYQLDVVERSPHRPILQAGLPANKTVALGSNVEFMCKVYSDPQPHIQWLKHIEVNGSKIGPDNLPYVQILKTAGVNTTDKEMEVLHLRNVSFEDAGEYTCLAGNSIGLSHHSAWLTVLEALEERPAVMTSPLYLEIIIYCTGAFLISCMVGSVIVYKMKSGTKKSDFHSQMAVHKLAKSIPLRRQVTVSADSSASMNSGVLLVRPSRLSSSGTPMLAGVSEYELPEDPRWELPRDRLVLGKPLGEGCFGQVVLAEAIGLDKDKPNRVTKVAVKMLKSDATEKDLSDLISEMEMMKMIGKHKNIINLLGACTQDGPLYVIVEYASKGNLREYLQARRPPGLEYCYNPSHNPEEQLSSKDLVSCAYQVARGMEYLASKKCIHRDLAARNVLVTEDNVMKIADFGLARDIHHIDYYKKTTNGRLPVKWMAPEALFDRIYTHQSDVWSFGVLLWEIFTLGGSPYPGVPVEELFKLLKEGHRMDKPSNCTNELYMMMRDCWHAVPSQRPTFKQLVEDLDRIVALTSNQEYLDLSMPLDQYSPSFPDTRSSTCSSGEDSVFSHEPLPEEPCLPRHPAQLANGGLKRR
Target sequence in this assay (Q86Z14 whole entry, chain 2 of 2): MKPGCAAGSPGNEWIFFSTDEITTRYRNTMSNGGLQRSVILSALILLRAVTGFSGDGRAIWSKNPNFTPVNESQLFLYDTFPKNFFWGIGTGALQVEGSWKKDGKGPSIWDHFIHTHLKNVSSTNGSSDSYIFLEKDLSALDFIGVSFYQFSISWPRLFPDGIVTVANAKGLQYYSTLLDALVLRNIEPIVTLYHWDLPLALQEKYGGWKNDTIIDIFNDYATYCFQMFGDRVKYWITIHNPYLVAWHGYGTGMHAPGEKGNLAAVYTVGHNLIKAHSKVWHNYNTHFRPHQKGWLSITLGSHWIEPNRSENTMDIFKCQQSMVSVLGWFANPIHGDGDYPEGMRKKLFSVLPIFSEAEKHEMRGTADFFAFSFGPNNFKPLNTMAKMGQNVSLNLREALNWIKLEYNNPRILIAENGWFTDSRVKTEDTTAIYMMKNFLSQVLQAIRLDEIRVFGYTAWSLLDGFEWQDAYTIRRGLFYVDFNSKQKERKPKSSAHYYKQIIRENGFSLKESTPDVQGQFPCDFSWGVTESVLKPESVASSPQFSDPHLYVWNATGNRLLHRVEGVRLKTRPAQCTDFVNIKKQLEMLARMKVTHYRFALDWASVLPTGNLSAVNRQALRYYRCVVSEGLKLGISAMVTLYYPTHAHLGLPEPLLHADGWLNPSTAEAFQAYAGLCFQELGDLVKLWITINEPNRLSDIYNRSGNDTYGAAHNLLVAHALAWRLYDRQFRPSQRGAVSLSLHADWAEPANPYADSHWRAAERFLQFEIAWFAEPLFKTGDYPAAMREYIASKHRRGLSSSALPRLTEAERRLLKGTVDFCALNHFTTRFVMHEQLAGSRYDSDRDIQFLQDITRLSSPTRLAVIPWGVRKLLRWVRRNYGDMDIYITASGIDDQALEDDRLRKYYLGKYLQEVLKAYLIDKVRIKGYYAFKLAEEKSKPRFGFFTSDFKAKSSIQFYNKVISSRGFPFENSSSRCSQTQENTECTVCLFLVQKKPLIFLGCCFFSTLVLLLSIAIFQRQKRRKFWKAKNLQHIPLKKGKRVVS

[3] = biological target: human FGFR1c/KLB receptor complex on iLite FGF21 Assay Ready Cells (human, UniProt P11362 22-822; Q86Z14 1-1044); test: cell-based or functional assay
Sequence of human FGFR1c/KLB receptor complex on iLite FGF21 Assay Ready Cells (P11362 22-822, chain 1 of 2): as the sequence (P11362 22-822, chain 1 of 2) above
Sequence of human FGFR1c/KLB receptor complex on iLite FGF21 Assay Ready Cells (Q86Z14 whole entry, chain 2 of 2): as the sequence (Q86Z14 whole entry, chain 2 of 2) above

[4] = biological target: cell surface receptor composed of FGFR1c and co-receptor beta-Klotho (KLB) (human, UniProt P11362 22-822; Q86Z14 1-1044); test: cell-based or functional assay; remark: listed apart in the source
Target sequence in this assay (P11362 22-822, chain 1 of 2): as the sequence (P11362 22-822, chain 1 of 2) above
Target sequence in this assay (Q86Z14 whole entry, chain 2 of 2): as the sequence (Q86Z14 whole entry, chain 2 of 2) above
For Mean E max (%) in this document: reference of the scale not given here.
For Mean E max, Luciferase reporter gene assay in this document: reference of the scale not given here.

Sequence of human FGFR1c/KLB cell surface receptor complex on iLite FGF21 reporter cells (P11362 22-822, chain 1 of 2): as the sequence (P11362 22-822, chain 1 of 2) above
Sequence of human FGFR1c/KLB cell surface receptor complex on iLite FGF21 reporter cells (Q86Z14 whole entry, chain 2 of 2): as the sequence (Q86Z14 whole entry, chain 2 of 2) above

B1: 16H7 variant, light chain N26T (antibody, human IgG4 S228P, lambda, V domains shown)
VH: not shown
VL: SYVLTQPPSVSVAPGQTARITCGGNTIGSESVHWYQQKPGQAPVLVVYDDSDRPSGIPERFSGSNSGNTATLTISRVEAGDEADYYCQVWDGNSDHVVFGGGTKLTVLG
notes: IgG4 backbone
Mean E max (%) [1]: 105%
Mean EC50 [1]: 0.143 nM
koff (human beta-Klotho (KLB)): 4.4e-05 s⁻¹

B2: 16H7 light chain variant V97K (antibody, IgG4, V domains shown)
VH: not shown
VL: B1 VL with T26N, V97K
Mean E max, Luciferase reporter gene assay [2]: 96%
Mean EC50, Luciferase reporter gene assay [2]: 0.444 nM

B3: 16H7 light chain variant D49P (antibody, IgG4, V domains shown)
VH: not shown
VL: B1 VL with T26N, D49P
Mean E max, Luciferase reporter gene assay [2]: 96%
Mean EC50, Luciferase reporter gene assay [2]: 0.195 nM

B4: 16H7 light chain variant V97A (antibody, IgG4, V domains shown)
VH: not shown
VL: B1 VL with T26N, V97A
Mean E max, Luciferase reporter gene assay [2]: 68%
Mean EC50, Luciferase reporter gene assay [2]: 2.09 nM

B5: 16H7 light chain variant D49C (antibody, IgG4, V domains shown)
VH: not shown
VL: B1 VL with T26N, D49C
Mean E max, Luciferase reporter gene assay [2]: 85%
Mean EC50, Luciferase reporter gene assay [2]: 0.789 nM

B6: 16H7 light chain variant D49T (antibody, IgG4, V domains shown)
VH: not shown
VL: B1 VL with T26N, D49T
Mean E max, Luciferase reporter gene assay [2]: 89%
Mean EC50, Luciferase reporter gene assay [2]: 0.107 nM

B7: 16H7 light chain variant D49K (antibody, IgG4, V domains shown)
VH: not shown
VL: B1 VL with T26N, D49K
Mean E max, Luciferase reporter gene assay [2]: 83%
Mean EC50, Luciferase reporter gene assay [2]: 1.34 nM

B8: 16H7 light chain variant D49E (antibody, IgG4, V domains shown)
VH: not shown
VL: B1 VL with T26N, D49E
Mean E max, Luciferase reporter gene assay [2]: 87%
Mean EC50, Luciferase reporter gene assay [2]: 0.193 nM

B9: 16H7 light chain variant V97D (antibody, IgG4, V domains shown)
VH: not shown
VL: B1 VL with T26N, V97D
Mean E max, Luciferase reporter gene assay [2]: 67%
Mean EC50, Luciferase reporter gene assay [2]: 0.375 nM

B10: 16H7 light chain variant D49R (antibody, IgG4, V domains shown)
VH: not shown
VL: B1 VL with T26N, D49R
Mean E max, Luciferase reporter gene assay [2]: 72%
Mean EC50, Luciferase reporter gene assay [2]: 1.86 nM

B11: 16H7 light chain variant V97E (antibody, IgG4, V domains shown)
VH: not shown
VL: B1 VL with T26N, V97E
Mean E max, Luciferase reporter gene assay [2]: 92%
Mean EC50, Luciferase reporter gene assay [2]: 0.15 nM

B12: 16H7 light chain variant D49V (antibody, IgG4, V domains shown)
VH: not shown
VL: B1 VL with T26N, D49V
Mean E max, Luciferase reporter gene assay [2]: 97%
Mean EC50, Luciferase reporter gene assay [2]: 0.206 nM

B13: 16H7 light chain variant D50P (antibody, IgG4, V domains shown)
VH: not shown
VL: B1 VL with T26N, D50P
Mean E max, Luciferase reporter gene assay [2]: 77%
Mean EC50, Luciferase reporter gene assay [2]: 0.124 nM

B14: 16H7 light chain variant V97S (antibody, IgG4, V domains shown)
VH: not shown
VL: B1 VL with T26N, V97S
Mean E max, Luciferase reporter gene assay [2]: 84%
Mean EC50, Luciferase reporter gene assay [2]: 0.308 nM

B15: 16H7 light chain variant D49F (antibody, IgG4, V domains shown)
VH: not shown
VL: B1 VL with T26N, D49F
Mean E max, Luciferase reporter gene assay [2]: 94%
Mean EC50, Luciferase reporter gene assay [2]: 0.256 nM

B16: 16H7 light chain variant D49M (antibody, IgG4, V domains shown)
VH: not shown
VL: B1 VL with T26N, D49M
Mean E max, Luciferase reporter gene assay [2]: 85%
Mean EC50, Luciferase reporter gene assay [2]: 0.224 nM

B17: 16H7 light chain variant V97H (antibody, IgG4, V domains shown)
VH: not shown
VL: B1 VL with T26N, V97H
Mean E max, Luciferase reporter gene assay [2]: 71%
Mean EC50, Luciferase reporter gene assay [2]: 1.47 nM

B18: 16H7 light chain variant D49L (antibody, IgG4, V domains shown)
VH: not shown
VL: B1 VL with T26N, D49L
Mean E max, Luciferase reporter gene assay [2]: 92%
Mean EC50, Luciferase reporter gene assay [2]: 0.529 nM

B19: 16H7 light chain variant V97P (antibody, IgG4, V domains shown)
VH: not shown
VL: B1 VL with T26N, V97P
Mean E max, Luciferase reporter gene assay [2]: 65%
Mean EC50, Luciferase reporter gene assay [2]: 2.55 nM

B20: 16H7 light chain variant V97R (antibody, IgG4, V domains shown)
VH: not shown
VL: B1 VL with T26N, V97R
Mean E max, Luciferase reporter gene assay [2]: -1%

B21: 16H7 light chain variant D49I (antibody, IgG4, V domains shown)
VH: not shown
VL: B1 VL with T26N, D49I
Mean E max, Luciferase reporter gene assay [2]: 83%
Mean EC50, Luciferase reporter gene assay [2]: 0.149 nM

B22: 16H7 light chain variant V97G (antibody, IgG4, V domains shown)
VH: not shown
VL: B1 VL with T26N, V97G
Mean E max, Luciferase reporter gene assay [2]: 75%
Mean EC50, Luciferase reporter gene assay [2]: 0.51 nM

B23: 16H7 light chain variant H96P (antibody, IgG4, V domains shown)
VH: not shown
VL: B1 VL with T26N, H96P
Mean E max, Luciferase reporter gene assay [2]: 50%

B24: 16H7 variant, light chain P54A (antibody, human IgG4 S228P, lambda, V domains shown)
VH: not shown
VL: B1 VL with T26N, P54A
Mean E max (%) [1]: 105%

B25: 16H7 variant, light chain R53N (antibody, human IgG4 S228P, lambda, V domains shown)
VH: not shown
VL: B1 VL with T26N, R53N
Mean E max (%) [1]: 100%

B26: 16H7 variant, light chain R53V (antibody, human IgG4 S228P, lambda, V domains shown)
VH: not shown
VL: B1 VL with T26N, R53V
Mean E max (%) [1]: 101%

B27: 16H7 variant, light chain G24P (antibody, human IgG4 S228P, lambda, V domains shown)
VH: not shown
VL: B1 VL with G24P, T26N
Mean E max (%) [1]: 110%

B28: 16H7 variant with light chain substitution S51F (antibody, V domains shown)
VH: not shown
VL: B1 VL with T26N, S51F
Mean E max (%) [3]: 100%
Mean EC50 [3]: 0.12 nM

B29: 16H7 variant, light chain N25F (antibody, human IgG4 S228P, lambda, V domains shown)
VH: not shown
VL: B1 VL with N25F, T26N
Mean E max (%) [1]: 104%

B30: 16H7 variant with light chain substitution R53N (antibody, V domains shown)
VH: not shown
VL: B1 VL with T26N, R53N
Mean E max (%) [3]: 100%

B31: 16H7 variant, light chain S55A (antibody, human IgG4 S228P, lambda, V domains shown)
VH: not shown
VL: B1 VL with T26N, S55A
Mean E max (%) [1]: 110%

B32: 16H7 variant with light chain substitution R53V (antibody, V domains shown)
VH: not shown
VL: B1 VL with T26N, R53V
Mean E max (%) [3]: 101%

B33: 16H7 variant with light chain substitution P54A (antibody, V domains shown)
VH: not shown
VL: B1 VL with T26N, P54A
Mean E max (%) [3]: 105%

B34: 16H7 light chain variant G28Q (antibody, human IgG4 S228P, lambda, V domains shown)
VH: not shown
VL: B1 VL with T26N, G28Q
Mean E max, Luciferase reporter gene assay [4]: 104%

B35: 16H7 light chain variant G28V (antibody, human IgG4 S228P, lambda, V domains shown)
VH: not shown
VL: B1 VL with T26N, G28V
Mean E max, Luciferase reporter gene assay [4]: 97%

B36: 16H7 light chain variant S29Y (antibody, human IgG4 S228P, lambda, V domains shown)
VH: not shown
VL: B1 VL with T26N, S29Y
Mean E max, Luciferase reporter gene assay [4]: 102%

B37: 16H7 variant, light chain Q88S (antibody, human IgG4 S228P, lambda, V domains shown)
VH: not shown
VL: B1 VL with T26N, Q88S
Mean E max (%) [1]: 104%

B38: 16H7 variant with light chain substitution S55A (antibody, V domains shown)
VH: not shown
VL: B1 VL with T26N, S55A
Mean E max (%) [3]: 110%
